Experimental data from paper PMC4631893, “Pseudomonas aeruginosa Exopolyphosphatase Is Also a Polyphosphate: ADP Phosphotransferase” (Enzyme Research, 2015).

How the values were obtained:
[1] = test system: Nc1ncnc2c1ncn2[C@@H]1O[C@H](COP(=O)(O)OP(=O)(O)O)[C@@H](O)[C@H]1O; assay: phosphotransferase activity, ATP by luciferin-luciferase; format: biochemical, Pseudomonas aeruginosa; settings: polyP25 or polyP65 as phosphate donor, 5 mM Mg2+, Tris-HCl pH 8.0, 37°C, one rounded value for both variants and both polyP, data not shown
[2] = target: T1, paPpx(1–506) (Pseudomonas aeruginosa, UniProt Q9ZN70); settings: 8 μM polyP65, 5 mM Mg2+, Tris-HCl pH 8.0, 37°C; nonessential activator, sigmoid curve
T1 construct: gene ppx
T1 sequence (Q9ZN70 whole entry): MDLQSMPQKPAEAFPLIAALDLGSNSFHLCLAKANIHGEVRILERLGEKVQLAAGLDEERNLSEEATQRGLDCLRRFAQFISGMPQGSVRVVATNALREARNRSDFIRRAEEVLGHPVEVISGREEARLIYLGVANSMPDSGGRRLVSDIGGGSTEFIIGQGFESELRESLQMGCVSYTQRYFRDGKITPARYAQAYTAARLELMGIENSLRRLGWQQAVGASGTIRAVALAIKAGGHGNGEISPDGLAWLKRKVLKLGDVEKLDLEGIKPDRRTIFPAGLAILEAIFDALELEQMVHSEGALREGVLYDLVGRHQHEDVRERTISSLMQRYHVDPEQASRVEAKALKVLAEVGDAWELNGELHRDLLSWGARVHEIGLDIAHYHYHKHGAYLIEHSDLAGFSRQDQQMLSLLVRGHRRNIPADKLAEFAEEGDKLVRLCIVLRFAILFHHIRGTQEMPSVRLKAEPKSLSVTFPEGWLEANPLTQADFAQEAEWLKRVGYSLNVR

Compound “N-paPpx(1–314) (Pseudomonas aeruginosa PAO1)” has a Km [1] of 90 µM.

In the case of `N` [NH4^+], the “K 0.5(app)NH4^+” value [2] is reported as 10 ± 0.4 mM.

Work on “paPpx(1–506) (Pseudomonas aeruginosa PAO1)” yielded a Km [1] of 90 µM.
